Results on five compounds are retold here after patent US20070225226A1, “C-REACTIVE PROTEIN APHERESIS” (The American National Red Cross, priority 2006, published 2007).

pKd: −log10 of the molar value. Like-named read-outs stand apart in the source and are kept apart here. Non-standard residues stand in square brackets, D forms with d. No end group written: not given here. 2Nal = N[C@@H](Cc1ccc2ccccc2c1)C(=O)O

Experiment [1] deals with T1, CRP (Homo sapiens, UniProt P02741).
T1 sequence (P02741 19-224): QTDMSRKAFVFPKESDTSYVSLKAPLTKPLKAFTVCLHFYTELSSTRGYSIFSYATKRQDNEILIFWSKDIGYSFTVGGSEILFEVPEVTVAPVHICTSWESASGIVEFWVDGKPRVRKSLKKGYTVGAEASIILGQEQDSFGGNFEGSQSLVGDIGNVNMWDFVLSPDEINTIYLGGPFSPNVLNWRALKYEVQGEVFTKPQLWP
Conditions: rats undergoing acute myocardial infarction, human CRP injected; reference (24); cited from earlier work.

The target of experiment [2] is T1, CRP. In words: Ability of resins to bind endogenous CRP from serum (LDS gel / Western blot of supernatant and eluate). The settings on record: two hours at room temperature, FIG. 1; for CRP detected in the supernatant after incubation with resin: 90 μl resin, 300 μl serum containing endogenous CRP; for binding of endogenous CRP by the resin: serum containing endogenous CRP. Set-up: from tissue; host or cells: serum. The class given is binding. How it is done:
Several of the sequences identified in Example 2 were synthesized at gram scale to assay their ability to bind CRP. 90 μl of resin of ligands eSFAZZ (SEQ ID NO: 3), hGYIGL (SEQ ID NO: 8), vLRPWK (SEQ ID NO: 4), wZQKNH (SEQ ID NO: 7) and kZPDLH (SEQ ID NO: 6) (Z denotes 2′naphthylananine, small letters denote D amino acids, and capital letters denote L amino acids) were incubated with 300 μl of serum containing endogenous CRP, for two hours at room temperature. The supernatant was collected and the protein bound to the beads was eluted by incubation at 70° C. for ten minutes in 2×LDS sample buffer (Invitrogen). 10 μl of incubation supernatant or resin eluate was loaded per lane in an LDS gel and the proteins transferred to a nitrocellulose membrane. CRP was detected on the membrane using mouse anti-human CRP monoclonal antibody CRP-8 (Cat#C-1688, Lot# 094K4803), C=9.1 mg/ml (Sigma-Aldrich, St. Louis, Mo.) and affinity purified phosphatase labeled goat anti mouse IgG(□) human serum adsorbed (Cat#075-1802, Lot# XE084) (KPL, Gaithersburg, Md., USA).
This was confirmed by the detection of CRP in the eluates from these resins. The opposite is true for the remaining resins. […] It should be noted that all three of these ligands have a positively charged amino acid at the carboxy terminus (K or H) while none of the negative resins have the positively charged residue.
For orientation: Immunoblotting shows a protein as a band on a membrane.

Experiment [3] has as its target T1, CRP. The experiment is described as follows: Equilibrium capacity for binding CRP spiked into plasma or citrate buffer (unbound CRP measured by ELISA). Conditions: 80 μl resin, two hours at room temperature. How it is done:
The equilibrium capacity of wZQKNH (SEQ ID NO: 7) for binding CRP was determined with CRP spiked into 200 μl of plasma or citrate buffer. 80 μl of wZQKNH resin was mixed with the spiked materials and allowed to incubate for two hours at room temperature. The supernatant was collected and CRP remaining in the supernatant (unbound fraction) was measured by ELISA. The apparent dissociation constant (the reciprocal of the association constant) for CRP bound from buffer was 12.8×10^−9 M whereas the apparent dissociation constant for CRP bound from plasma was 370×10^−9M, indicating a level of interference in plasma, possibly arising from CRP associating with other plasma proteins which may alter its dissociation constant.

For experiment [4], the target named is Human CRP (C-reactive protein) (human) (UniProt P02741). In words: Equilibrium binding of CRP spiked into plasma to 80 ul wZQKNH resin, 2 h at room temperature; unbound CRP measured by ELISA; apparent KD. On the technique in general: An ELISA detects its analyte on a solid surface through an enzyme-linked reagent.
Experiment [5] has the same target. In words: Equilibrium binding of CRP spiked into citrate buffer to 80 ul wZQKNH resin, 2 h at room temperature; unbound CRP measured by ELISA; apparent KD.

In the case of `C[N+](C)(C)CCOP(=O)([O-])OCCCCCCOP(=O)([O-])OCC[N+](C)(C)C` [1,6-bis(phosphocholine)-hexane], the “increase in infarct size and cardiac dysfunction produced by human CRP” value in experiment [1] is “abrogate”.
Turning to “Lys-Nal-Pro-Asp-Leu-His ([dK][2Nal]PDLH) [kZPDLH, hexamer peptide ligand on Toyopearl resin; Z denotes 2′naphthylalanine]”, in experiment [2], the “CRP detected in the supernatant after incubation with resin” value (shortened to “CRP detected in the supernatant”) is “No CRP was detected” and the “binding of endogenous CRP by the resin” value was “appear to bind endogenous CRP”.
In the case of “Trp-Nal-Gln-Lys-Asn-His ([dW][2Nal]QKNH) [wZQKNH, hexamer peptide ligand on Toyopearl resin; Z denotes 2′naphthylalanine]”, the pKd in experiment [3] (CRP spiked into citrate buffer, read-out: apparent dissociation constant for CRP bound from buffer) is 7.89. Besides, the pKd in experiment [3] (CRP spiked into plasma, read-out: apparent dissociation constant for CRP bound from plasma) was 6.43. Besides, in experiment [2], the “CRP detected in the supernatant” value was “No CRP was detected” and the “binding of endogenous CRP by the resin” value is given as “appear to bind endogenous CRP”.
On to “VLRPWK [hexamer peptide ligand on Toyopearl resin]”, for which, in experiment [2], the “CRP detected in the supernatant” value is “No CRP was detected” and the “binding of endogenous CRP by the resin” value was “appear to bind endogenous CRP”.
As for wZQKNH (SEQ ID NO: 7) (peptide), the pKd is 6.43 in experiment [4] and 7.89 in experiment [5].
